# Results: patent US20250163140A1 (Kyowa Kirin, published 2025)
# Numbering of substitutions follows the chain as printed. Several values for one entry are separate records, joined by “and”; a condition that tells them apart may be missing. Equal values may be shown once. Read-outs that look alike come from different tables or passages of the source.
# T1: Recombinant Human FGF-23 (R&D Systems, Cat No. 2604-FG-025/CF) (human, UniProt Q9GZV9 25-251)
# T1 sequence (looked up): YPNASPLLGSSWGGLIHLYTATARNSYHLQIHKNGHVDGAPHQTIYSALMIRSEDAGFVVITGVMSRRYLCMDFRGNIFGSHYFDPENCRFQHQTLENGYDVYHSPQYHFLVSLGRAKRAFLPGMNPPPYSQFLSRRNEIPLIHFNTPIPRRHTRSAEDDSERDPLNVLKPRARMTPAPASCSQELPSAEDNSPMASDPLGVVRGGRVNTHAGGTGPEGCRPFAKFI
# B1: antibody A-10 (antibody, V domains shown)
# VH: QVQLVQSGAEVKKPGASVKVSCKASGYTFTNHYMHWVRQAPGQGLEWMGIINPISGSTSNAQKFQGRVTMTRDTSTSTVYMELSSLRSEDTAVYYCARDYVDAFDFWGQGTMVTVSS
# VL: AIQLTQSPSSLSASVGDRVTITCRASQGISSALVWYQQKPGKAPKLLIYDASSLESGVPSRFSGSGSGTDFTLTISSLQPEDFATYYCQQFYDDFDFGPGTKVDIK
# notes: not shown: human kappa chain constant region
# B2: antibody A (antibody, human IgG1)
# heavy: not shown
# light: B1 VL with Y92N, D94Y, D96T
# notes: Human IgG1 antibody, kappa light chain; also called A_1; A_2; not shown: human kappa chain constant region
# B3: antibody A-9 (antibody, V domains shown)
# VH: B1 VH with Y100A
# VL: B1 VL with Y92W
# notes: as for B1
# B4: antibody A_IgG4PE_R409K_LS (antibody)
# heavy: QVQLVQSGAEVKKPGASVKVSCKASGYTFTNHYMHWVRQAPGQGLEWMGIINPISGSTSNAQKFQGRVTMTRDTSTSTVYMELSSLRSEDTAVYYCARDIVDAFDFWGQGTMVTVSSASTKGPSVFPLAPCSRSTSESTAALGCLVKDYFPEPVTVSWNSGALTSGVHTFPAVLQSSGLYSLSSVVTVPSSSLGTKTYTCNVDHKPSNTKVDKRVESKYGPPCPPCPAPEFEGGPSVFLFPPKPKDTLMISRTPEVTCVVVDVSQEDPEVQFNWYVDGVEVHNAKTKPREEQFNSTYRVVSVLTVLHQDWLNGKEYKCKVSNKGLPSSIEKTISKAKGQPREPQVYTLPPSQEEMTKNQVSLTCLVKGFYPSDIAVEWESNGQPENNYKTTPPVLDSDGSFFLYSKLTVDKSRWQEGNVFSCSVLHEALHSHYTQKSLSLSLGK
# light: B1 VL with Y92N, D94Y, D96T
# notes: not shown: human kappa chain constant region; copies: 2 + 2
# Experiments:
# [1] = target: T1, Recombinant Human FGF-23 (R&D Systems, …); assay: cell-based or functional assay
# [2] = target: T1, Recombinant Human FGF-23 (R&D Systems, …); assay: SPR, antibody captured on Protein A chip, FGF-23 analyte
# [3] = target: T1, Recombinant Human FGF-23 (R&D Systems, …); assay: cell-based or functional assay; remark: listed apart in the source
# [4] = target: T1, Recombinant Human FGF-23 (R&D Systems, …); assay: SPR, antibody captured by anti-human IgG, FGF-23 analyte
# [5] = target: T1, Recombinant Human FGF-23 (R&D Systems, …); assay: cell-based or functional assay; remark: listed apart in the source
# [6] = target: T1, Recombinant Human FGF-23 (R&D Systems, …); assay: cell-based or functional assay; remark: listed apart in the source
# [7] = target: T1, Recombinant Human FGF-23 (R&D Systems, …); assay: SPR, antibody captured by anti-human IgG, FGF-23 analyte; remark: listed apart in the source
# [8] = target: T1, Recombinant Human FGF-23 (R&D Systems, …); assay: as above; remark: listed apart in the source
# [9] = target: T1, Recombinant Human FGF-23 (R&D Systems, …); assay: as above; remark: listed apart in the source
# [10] = target: T1, Recombinant Human FGF-23 (R&D Systems, …); assay: SPR, antibody captured on Protein A chip, FGF-23 analyte; remark: listed apart in the source
# [11] = target: T1, Recombinant Human FGF-23 (R&D Systems, …); assay: cell-based or functional assay; remark: listed apart in the source
# [12] = target: T1, Recombinant Human FGF-23 (R&D Systems, …); assay: SPR, antibody captured on Protein A chip, FGF-23 analyte; remark: listed apart in the source
# [13] = target: T2, human FcRn (human FcRn-His tag with human β2 microglobulin) (human, UniProt P55899 24-297; P61769 21-119); assay: SPR pH 6, FcRn-His captured by anti-His, antibody analyte
# T2 construct: also called h FcRn; hFcRn
# T2 sequence (P55899 other isoform, or with tags, fused parts or gaps limits assumed, chain 1 of 2): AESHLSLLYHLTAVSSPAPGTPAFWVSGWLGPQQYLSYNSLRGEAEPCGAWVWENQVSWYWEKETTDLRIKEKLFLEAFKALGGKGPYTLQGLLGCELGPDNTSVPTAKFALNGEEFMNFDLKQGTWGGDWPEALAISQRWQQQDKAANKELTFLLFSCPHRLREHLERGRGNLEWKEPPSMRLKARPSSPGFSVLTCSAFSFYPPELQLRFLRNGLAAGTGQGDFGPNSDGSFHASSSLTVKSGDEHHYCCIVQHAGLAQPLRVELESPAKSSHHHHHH
# T2 sequence (P61769 21-119 limits assumed, chain 2 of 2): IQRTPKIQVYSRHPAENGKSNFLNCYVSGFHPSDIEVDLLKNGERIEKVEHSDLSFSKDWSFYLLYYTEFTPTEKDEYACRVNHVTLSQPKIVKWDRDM
binder,measurement,setting,value
B1,FGF23 neutralizing activity IC50 (luciferase promoter assay),[1],1.5 ng/mL
same,Kd,[2],20.2 pM
same,"FGF23 neutralizing activity, fold against antibody A",[3],2 fold
B2,Kd,[4],3.76 pM and 4.15 pM
same,FGF23 neutralizing activity IC50 (luciferase promoter assay),[1],3.2 ng/mL
same,"FGF23 neutralizing activity IC50 (luciferase promoter assay), antibody A in same measurement lot",[1],3.2 ng/mL and 2.8 ng/mL
same,Kd,[2],14.4 pM
same,FGF23 neutralizing activity IC50 (luciferase promoter assay),[5],1.2 ng/mL
same,FGF23 neutralizing activity IC50 (luciferase promoter assay),[6],1.4 ng/mL
same,Kd,[7],9.93 pM
same,Kd,[8],2.06 pM and 2.6 pM and 3.76 pM
same,Kd,[9],4.51 pM
same,kon,[9],9.12e+07 M⁻¹ s⁻¹
same,Kd,[10],8.77 pM
same,FGF23 neutralizing activity IC50 (luciferase promoter assay),[11],3.3 ng/mL
same,"FGF23 neutralizing activity IC50 (luciferase promoter assay), antibody A in same measurement lot",[11],3.1 ng/mL and 3.3 ng/mL
B3,FGF23 neutralizing activity IC50 (luciferase promoter assay),[1],1 ng/mL
same,Kd,[2],6.87 pM
same,fold antigen binding activity against antibody A,[12],2 fold
same,"FGF23 neutralizing activity, fold against antibody A",[3],3 fold
B4,Kd,[13],116000 pM
